± gives the standard deviation of the averaged measurements.
Test system: Saccharomyces cerevisiae
Test: protein stability index of tFT-peptide fusion (C-terminal peptide) (PSI (0-1 scale)); higher = more stable (slower turnover)
Settings: genetic background: wild type; temperature: 30 C
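Note: PSI is a weighted mean of sequencing reads over stability bins, variants kept only with over 10 reads, mCherry proximal and sfGFP distal, peptide attached via GGGS linker.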

Row | Sequence | protein stability index
1 | FKWSGGGRGVGP | 0.679 ± 0.08
2 | QDFDHPNSIRLP | 0.671 ± 0.027
3 | GVLVAFLWGESV | 0.593 ± 0.018
4 | VCWFMWSSVYGE | 0.527 ± 0.051
5 | RRCRLNPPIDST | 0.683 ± 0.088
6 | TPPLCAPPLPPP | 0.7022 ± 0.0054
7 | GDNRSVSRKAEW | 0.614 ± 0.047
8 | VSPLPSPVPLLP | 0.69 ± 0.076
9 | MIRVRGRQKIEG | 0.724 ± 0.13
10 | PLPGLLHCPTSP | 0.717 ± 0.12
11 | PPAVPSTPLSPP | 0.685 ± 0.032
12 | LSIPPSLLSLPL | 0.702 ± 0.025
13 | GICIVGGCGCVG | 0.612 ± 0.068
14 | AVPSAPPNPDAS | 0.704 ± 0.046
15 | PIPSPYYPPTFC | 0.73 ± 0.11
16 | WFCFGSFILCLL | 0.492 ± 0.028
17 | TQLNTLSTINRT | 0.71 ± 0.11
18 | PTAPLIPTGGAP | 0.685 ± 0.029
19 | PPPYRPPPSSPG | 0.661 ± 0.04
20 | SFRVLCHGAQLL | 0.634 ± 0.065
21 | ARSGDSGQPPSQ | 0.689 ± 0.05
22 | LITGRGFGFVVV | 0.674 ± 0.024
23 | LSPGTPVSAPRL | 0.655 ± 0.029
24 | FLSSFVSNHVFW | 0.7914 ± 0.0032
25 | YWAPYVWMFGFR | 0.565 ± 0.0088

Row | Sequence | protein stability index
26 | GVGVLGGGYMCL | 0.647 ± 0.069
27 | ASYSFLSFCNRV | 0.631 ± 0.015
28 | AGGKGVGRGWGL | 0.698 ± 0.051
29 | FFMWDLLFLSLD | 0.669 ± 0.011
30 | DGRGPVSPTSLR | 0.662 ± 0.036
31 | ILRGRDLPHGLG | 0.688 ± 0.03
32 | PPPLSVPVPPLS | 0.68 ± 0.021
33 | PPYPLHPARPPY | 0.702 ± 0.036
34 | SPPSPYPPPLDR | 0.695 ± 0.021
35 | DPCDVVQHPSAQ | 0.657 ± 0.11
36 | GLDEGCRVGEEV | 0.643 ± 0.013
37 | VDLLGWVSESRC | 0.743 ± 0.089
38 | PTAESFNVRKRD | 0.723 ± 0.086
39 | VELFSYGHHCRV | 0.658 ± 0.011
40 | PRFPLPLPPPSP | 0.7356 ± 0.0037
41 | PPFPPPSPPHAL | 0.751 ± 0.1
42 | GWPVGSLKTPCR | 0.726 ± 0.046
43 | TKSQGGLTWASC | 0.626 ± 0.011
44 | LSETTAYLQQAS | 0.693 ± 0.1
45 | GVECGSVCGGGG | 0.651 ± 0.013
46 | TNFSRCFLFRSW | 0.629 ± 0.025
47 | AGGDDGAPGTQS | 0.644 ± 0.015
48 | GLVFSFSACPVL | 0.653 ± 0.066
49 | LIPALPPPLPPP | 0.673 ± 0.0056
50 | PSLPPPPPRAFS | 0.649 ± 0.0028

Row | Sequence | protein stability index
51 | RGTWSLFYAFLD | 0.578 ± 0.035
52 | TVLSSQKPNNDR | 0.652 ± 0.023
53 | WVGFRTFGVWGV | 0.707 ± 0.063
54 | THPPLTSRSSPP | 0.654 ± 0.044
55 | SELTCSSINSAT | 0.673 ± 0.024
56 | SLPRWLPPPLQS | 0.687 ± 0.0095
57 | LVRGKGGRGIEG | 0.698 ± 0.074
58 | ISSTGYQARHRG | 0.688 ± 0.03
59 | DLYPSVWVSIGP | 0.721 ± 0.019
60 | IVRTMLKLFVDV | 0.5827 ± 0.0037
61 | VSSCLHDYSAIY | 0.744 ± 0.029
62 | PPPASRTPSNLP | 0.732 ± 0.046
63 | DRGSSRFTIGPK | 0.676 ± 0.022
64 | GKYIPHGNPSMA | 0.685 ± 0.051
65 | TREITDAKVGNE | 0.7145 ± 0.0015
66 | SRLRPHNSSTPV | 0.716 ± 0.053
67 | LVHRGRRGSNIE | 0.7537 ± 0.0011
68 | PLSAPNHVPGRT | 0.702 ± 0.045
69 | DDSHVLILKFNW | 0.691 ± 0.045
70 | RSYRLRTSRADI | 0.683 ± 0.1
71 | LFHPPVCPVFLD | 0.758 ± 0.037
72 | FLSRCSVRPVTY | 0.668 ± 0.021
73 | KLVGSLLSPDSE | 0.724 ± 0.015
74 | LFPPFPPFSFSP | 0.798 ± 0.045
75 | STSPFPAPRRAL | 0.775 ± 0.052

Row | Sequence | protein stability index
76 | PLSRPFSPSLPL | 0.66 ± 0.028
77 | AFLMPFPSRLCV | 0.5806 ± 0.0052
78 | GGQGFWRLWCLG | 0.686 ± 0.05
79 | WLNMKFRTLCGS | 0.634 ± 0.038
80 | GQNASYFPRRTG | 0.643 ± 0.052
81 | PFLHPTRLARSN | 0.712 ± 0.011
82 | FALAVPLDPWSS | 0.737 ± 0.065
83 | LFSDAWVLTDWW | 0.753 ± 0.044
84 | PRRFPPPSPSPP | 0.713 ± 0.085
85 | IVGLGLENGKEI | 0.704 ± 0.042
86 | RNVALPSRKAQY | 0.715 ± 0.016
87 | TTYFLASSEWAG | 0.7739 ± 0.003
88 | SLESRGLRSRHY | 0.633 ± 0.073
89 | EYGSWIRTASRV | 0.726 ± 0.016
90 | GLCVGVGLVWKL | 0.65 ± 0.07
91 | WDEDGIFDAGGA | 0.6 ± 0.041
92 | RLVRVTSIKGKR | 0.735 ± 0.054
93 | GDFFVSFRCLLL | 0.606 ± 0.027
94 | LSTSINTIIPGP | 0.71 ± 0.14
95 | LGTGKSGLCVWE | 0.665 ± 0.012
96 | HPPRPPLPRPRL | 0.778 ± 0.19
97 | DQSLHAWSLRCT | 0.771 ± 0.011
98 | KKTTKRKKEKQK | 0.633 ± 0.07
99 | YSGLNRVPDFCH | 0.676 ± 0.039
100 | VGPSGLIRCSFC | 0.712 ± 0.029

Row | Sequence | protein stability index
101 | LRNGSFFLVFSC | 0.531 ± 0.016
102 | DQIWHPATRIMC | 0.638 ± 0.071
103 | PPLAAFLPFLAL | 0.694 ± 0.0011
104 | PCASGSPRFCQR | 0.707 ± 0.025
105 | SKNEIKNYNTKI | 0.642 ± 0.031
106 | LLPLPPPPLFLP | 0.705 ± 0.011
107 | VELCLREKQIQL | 0.6749 ± 0.0039
108 | PALPFAPPPLPP | 0.685 ± 0.02
109 | PSEPGPPRVSTP | 0.647 ± 0.08
110 | PMLSLFRYNVVR | 0.697 ± 0.021
111 | ACFFNCFISLPF | 0.584 ± 0.048
112 | WSIWRLPSFEWV | 0.741 ± 0.04
113 | LRSRVGYVMPVR | 0.5988 ± 0.0057
114 | NDNNSRSGRRIF | 0.66 ± 0.019
115 | RLPPLLVPFPSS | 0.694 ± 0.015
116 | QEVTEVFSSTSY | 0.658 ± 0.01
117 | GLRRTGRISGSV | 0.7 ± 0.0076
118 | PWPLPLPPSSLP | 0.684 ± 0.018
119 | RLIPPQTAHEFP | 0.685 ± 0.028
120 | SPTRPPSPIISR | 0.7181 ± 0.002
121 | SRLPSYVSACSF | 0.671 ± 0.011
122 | FPSTPRPPLPPP | 0.668 ± 0.014
123 | IHSPSAYLQPSF | 0.761 ± 0.029
124 | IKLVVLGPLVWF | 0.625 ± 0.018
125 | ARCLSFPSSSSA | 0.654 ± 0.022

Row | Sequence | protein stability index
126 | FGCGVADLERCL | 0.686 ± 0.013
127 | KTINEKKKRIEQ | 0.713 ± 0.055
128 | PHLHTPDDARPL | 0.698 ± 0.092
129 | PCPPPRSPPLAP | 0.74539 ± 0.00027
130 | PLLPPLPATSHT | 0.786 ± 0.14
131 | PPYPPGLPSLPP | 0.689 ± 0.043
132 | TPSPHPRYRASH | 0.703 ± 0.026
133 | IEGKDSQEREGR | 0.706 ± 0.075
134 | GRGGGGGLWVRV | 0.651 ± 0.023
135 | PLHPPCLPPSRL | 0.814 ± 0.043
136 | GVLGLDLSVVGG | 0.716 ± 0.035
137 | RLTKTRNDLRSL | 0.654 ± 0.016
138 | GVRYFKWGCTHG | 0.684 ± 0.029
139 | PPGPTSSPTKTH | 0.729 ± 0.056
140 | KCPRPDATLYQS | 0.721 ± 0.042
141 | SPGSSIFLYFFT | 0.729 ± 0.022
142 | SSLLPLLVPLAP | 0.723 ± 0.076
143 | EKGRERREGGRK | 0.749 ± 0.044
144 | LMFPLPLRSFPF | 0.6931 ± 0.0014
145 | AYRITRSRGTEF | 0.7233 ± 0.0036
146 | FLPRRLCVRWRG | 0.684 ± 0.065

— the supplement of paper PMC10724198
